Laboratory results as given in paper PMC3750215.

System: Mdj1 (wt, mature)
Assay: EMSA
Conditions: EMSA with 0.36 nM 32P-ori5 DNA; buffer, salt, pH and temperature not given (as described in ref 35)

ori5 71 bp fragment
Kd: 210 nM
